Literature values in patent US6316409A, “Modified ligands of calcium-dependent binding proteins” (Medical Research Council, priority 1996, dated 2001).

Target: T1, barnase (Bacillus amyloliquefaciens, UniProt P00648)
T1 sequence (P00648 48-157): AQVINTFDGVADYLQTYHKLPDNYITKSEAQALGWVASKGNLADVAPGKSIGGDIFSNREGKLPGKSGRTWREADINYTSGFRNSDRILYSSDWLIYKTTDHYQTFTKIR
Settings: cited from earlier work

B1: barstar: physiological inhibitor of barnase (protein, UniProt P11540 2-90, looked up)
Barstar: KKAVINGEQIRSISDLHQTLKKELALPEYYGENLDALWDCLTGWVEYPLVLEWRQFEQSKQLTENGAESVLQVFREAKAEGCDITIILS
- association rate constant: 3.8e+09 M⁻¹ s⁻¹
